# T1: human IL2Ra (Peprotech, Germany, #200-02RC) (human, UniProt P01589 22-240)
# T1 construct: Coated on the ELISA plate; also called hIL2Ra; IL-2 receptor alpha
# T1 sequence (looked up): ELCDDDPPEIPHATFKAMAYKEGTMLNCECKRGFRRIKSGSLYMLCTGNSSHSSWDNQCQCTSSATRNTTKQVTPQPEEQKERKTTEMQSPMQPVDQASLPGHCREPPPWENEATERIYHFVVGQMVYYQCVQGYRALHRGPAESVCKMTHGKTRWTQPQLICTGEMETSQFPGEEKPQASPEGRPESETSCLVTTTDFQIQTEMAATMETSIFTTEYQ
# T2: murine IL-11 (Invigate, e.g., lot #C210819-09) (mouse, UniProt P47873 22-199)
# T2 sequence: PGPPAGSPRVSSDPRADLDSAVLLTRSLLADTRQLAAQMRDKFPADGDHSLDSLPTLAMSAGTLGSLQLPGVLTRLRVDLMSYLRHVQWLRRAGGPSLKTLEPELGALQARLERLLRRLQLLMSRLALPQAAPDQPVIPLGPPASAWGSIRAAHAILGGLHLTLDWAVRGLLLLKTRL
# T3: human IL-11 (Invigate, e.g., lot #C121021-19) (human, UniProt P20809 22-199)
# T3 sequence: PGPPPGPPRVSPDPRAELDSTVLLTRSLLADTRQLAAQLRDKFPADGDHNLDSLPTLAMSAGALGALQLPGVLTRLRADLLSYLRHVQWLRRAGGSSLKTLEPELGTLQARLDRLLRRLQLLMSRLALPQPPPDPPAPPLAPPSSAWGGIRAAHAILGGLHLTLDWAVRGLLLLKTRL
# B1: TPP-19528 (antibody, mouse IgG1, V domains shown)
# VH: EVQLLESGGGLVQPGGSLRLSCAASGFTFSIYAMSWVRQAPGKGLEWVSSISDTGDRTYYADSVKGRFTISRDNSKNTLYLQMNSLRAEDTAVYYCARSNWGSLDYWGQGTLVTVSS
# VL: QSVLTQPPSASGTPGQRVTISCSGSSSNIGSNYVYWYQQLPGTAPKLLIYYDDLLPSGVPDRFSGSKSGTSASLAISGLRSEDEADYYCAAWDDSLSGRVFGGGTKLTVLG
# notes: mIgG1, Lambda
# How the values were obtained:
# [1] = target: T1, human IL2Ra (Peprotech, Germany, …); experiment: direct binding ELISA on coated IL2Ra, antibody at 3.3E-7 [M]
# Procedure: IL2RA (Peprotech, Germany, #200-02RC) was coated at 1 or 0 μg/ml (buffer only control) in 30 μl coating buffer (Candor, #113500) per well on a 384 well microtiter plate (Maxisorb, Nunc, #460518) over night at 4-8° C. After two washes with 50 μl/well washing buffer (PBS+0.05% Tween, pH 7.4), the plates were incubated for two hours at room temperature with 50 μl/well SmartBlock (Candor, #113500). After blocking, the plates were washed three times with washing buffer. […] After three additional washes, 30 μl anti mouse IgG HRP-conjugated antibody (Biotechne, HAF007), diluted 1:1000 in PBS+0.05% Tween (pH 7.4), were added per well and incubated for one hour. After three additional washes, a mixture of Amplex red (Invitrogen, #12222, 10 mM stock solution in DMSO) 1:1000 diluted in PBS and H2O2 (30%, Merck, #107209)) diluted 1:10000 in PBS were added as substrate with 30 μl per well and incubated for 20 min in the dark. Relative fluorescence was measured with a microtiter plate reader at 535/590 nm.
# [2] = target: T2, murine IL-11 (Invigate, e.g., lot …); experiment: cell-based or functional assay
# [3] = target: T3, human IL-11 (Invigate, e.g., lot …); experiment: cell-based or functional assay
# [4] = target: T2, murine IL-11 (Invigate, e.g., lot …); experiment: SPR, Biacore T200, 25 C; antibody captured via anti-mouse Fc, IL-11 as analyte, 1:1 Langmuir fit
# Procedure: (§1) Antibodies were captured via anti-mouse Fc IgGs (“Mouse antibody capture kit, Order No. BR100383, Cytiva) covalently amine coupled to a Series S CM5 sensor chip (Cytiva). The amine coupling was carried out according to the manufacturer's instructions using 1-ethyl-3-(3-dimethylaminopropyl) carbodiimide hydrochloride (EDC), N-hydroxysuccinimide (NHS) and ethanolamine HCl, pH 8.5 (“Amine Coupling Kit” BR-1000-50, Cytiva.). Human IL-11 (Invigate, e.g., lot #C121021-19), and murine IL-11 (Invigate, e.g., lot #C210819-09) were used as analytes. […] Based on that experiment an IL-11 concentration range was chosen to optimally determine kinetics and affinity of anti-IL-11 antibodies in multicycle kinetics mode. The sensor surface was regenerated with glycine pH 1.7 after each antigen injection. Obtained sensorgrams were double referenced (subtraction of reference flow cell signal and buffer injection) and were fitted to a 1:1 Langmuir binding model to derive kinetic data using the Biacore T200 Evaluation software or the Biacore Insight software.
# [5] = target: T3, human IL-11 (Invigate, e.g., lot …); experiment: as above
# Procedure: as §1
binder,measurement,setting,value
B1,ratio of the signals versus the isotype control TPP-10159,[1],0.8
same,"Efficacy (%), Stat3 reporter gene assay, mouse Il11ra, 3.13 nM mIL-11",[2],80.7%
same,"IC50 [M], Stat3 reporter gene assay, HEK 293F transfected with mouse Il11ra, 3.13 nM mIL-11",[2],9.6e-09 M
same,"Efficacy (%), Stat3 reporter gene assay, human IL11RA, 0.78 nM hIL-11",[3],65.6%
same,"IC50 [M], Stat3 reporter gene assay, HEK 293F transfected with human IL11RA, 0.78 nM hIL-11",[3],1.5e-08 M
same,Kd,[4],9 nM
same,Kd,[5],11 nM
